# According to the supplement of paper PMC9170038:
# System: MS2 coat protein
# Assay: apparent KD of MS2 coat protein; designed switch direction (-1 OFF switch, 1 ON switch): 1; higher = weaker reporter binding
# Procedure, shortened: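 Three titration conditions were used: no input, 200 uM small-molecule ligand, and an oligonucleotide input. In each, SNAP-549-labelled MS2 coat protein was raised from 0.7 or 1.5 nM, doubling, to 3 µM over designed RNA switches transcribed on Illumina chips by stalled E. coli RNA polymerase. Curve fits of normalised cluster fluorescence gave values whose per-design median over clusters is the apparent KD.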
# [1] = input ligand: microRNA oligo, concentration not stated
# [2] = Eterna round: R95, input ligand: FMN 200 uM
# [3] = Eterna round: R95, input ligand: microRNA oligo, concentration not stated
# [4] = Eterna round: R95, input ligand: none
Sequence,apparent KD of MS2 coat protein (input ligand: FMN 200 uM),apparent KD of MS2 coat protein [1],apparent KD of MS2 coat protein (input ligand: none),apparent KD of MS2 coat protein [2],apparent KD of MS2 coat protein [3],apparent KD of MS2 coat protein [4]
"GCUCGACGUAUUGUCUACAUGAGGAUCACCCAUGUAGGUGCGGAGGAUAUUUACGUGUUUCAUGUAGAGAAGGUCGUGUCGAGC [SameState NG3 #94] (Eterna round: R96, puzzle: Same State NG 3)",27.8 nM,166 nM,185 nM,–,–,–
AAGGAAUGAGCGUAGGAUAUAGGAGAAGUGACAUGAGGAUCACCCAUGUAAAAGGAGGGAUGAGACUAGAAGGACGAGGUAGGAG [JR_SS2_Sub058] (puzzle: Same State 2),–,–,–,57.9 nM,53.3 nM,81.8 nM
"GCUAGAAAUAAUGCCAACAUGAGGAUCACCCAUGUAUGUUGGCAGGAUAUCGUUUGCAAAGCAAACGAGAAGGGCUAAACUAGC [Mat - Same State NG 3 - JL Mod - D8] (Eterna round: R96, puzzle: Same State NG 3)",236 nM,237 nM,338 nM,–,–,–
"GCCGCAAGGGCAGGAUAUGGGUCCAGAGCGCAAAUGCGCUCUGGUACAUGAGGAUCACCCAUGUCCCAGAAGGGCCCAAGCGAC [Xeatvearbe] (Eterna round: R96, puzzle: Same State NG 2)",14.6 nM,88.6 nM,130 nM,–,–,–
AGUCCAGCCUGAGCUGGACAAAAGCAUGUACAUGAGGAUCACCCAUGUCAUGUACAAGCUUAUUGCUCGUCUUAAUA [Mat - hsa-mir-208a - Mod of JL - D40] (puzzle: Sensor for hsa-mir-208a),–,–,–,226 nM,16.7 nM,251 nM
"AAUUAAGAUUAAGGAUAUCACGUCGAUUAGACGUGAGAAGGUGAUCAUAACAUGAGGAUCACCCAUGUAUUACAUGAAUUAAUU [SSNG1/3-B2] (Eterna round: R96, puzzle: Same State NG 1)",132 nM,113 nM,118 nM,–,–,–
AGAAAGAAAACGCAGGAUAUGGAGCAUGAGACAUGAGGAUCACCCAUGUCAAAAGAAAAGAAGAACCAGAAGGGCGGGAAAGAAA [Default title] (puzzle: Same State 2),–,–,–,18.5 nM,11.7 nM,15.6 nM
"GCGAAGAGGUAAGGAUAUUCAUGGCGUAGACAUGAGGAUCACCCAUGUAGGAGACGAAUUAGAAGGGAGAAGGUACCAGGACGC [AK SSNG2-V2-17] (Eterna round: R96, puzzle: Same State NG 2)",60.9 nM,101 nM,187 nM,–,–,–
"AAUUUAAUACAUGAGGAUCACCCAUGUAAAUUAAUUAAGAUCUAGGAUAUCAGCUCGUUUAGAGCUGAGAAGGAGAUCACAUGU [SSNG3/19-B3] (Eterna round: R96, puzzle: Same State NG 3)",–,12.5 nM,–,–,–,–
"UUGCGGGUUUGAGGAUAUUGAGUACAUAUGUUUAACAUGAGGAUCACCCAUGUGGGUUGCGGUAUCGAGAAGGUAACUUACUAC [salish99_SSNG2_r04_806] (Eterna round: R96, puzzle: Same State NG 2)",179 nM,68.9 nM,110 nM,–,–,–
"GUGGUGGGUUGAGGAUAUUGGUUGUUGUUGUCCCACAUGAGGAUCACCCAUGUGGGUUGUGGUUUUGAGAAGGUUGGUUGCUGG [salish99_SSNG2_r04_051] (Eterna round: R96, puzzle: Same State NG 2)",–,14.4 nM,–,–,–,–
"UGAACCUUCACAGGAUAUCAUGCGAAAAUUGCGUGAGAAGGGUGGAUGUGGCGUUCAAAGAUGCACAUGAGGAUCACCCAUGUA [SameState NG1 #49] (Eterna round: R96, puzzle: Same State NG 1)",162 nM,113 nM,191 nM,–,–,–
"UGCUUCAUGUAAGGAUAUGCAGCCGUUUCGGCUGCAGAAGGUACUAUAAUACAUGAGGAUCACCCAUGUCUCUCGCAUUGCGGG [salish99_SSng1_r04_302] (Eterna round: R96, puzzle: Same State NG 1)",91 nM,118 nM,184 nM,–,–,–
"GCUUGCGACGCAGGAUAUGGGUGCCUGUACAUGAGGAUCACCCAUGUUAAGGAACGGAUUACGUCUCAGAAGGGCGUGGCAGGC [Ceerce Mod] (Eterna round: R96, puzzle: Same State NG 2)",37.1 nM,31.1 nM,1250 nM,–,–,–
"AAGGGCGGAAACGACAUGAGGAUCACCCAUGUUGCCGAAAGGCAGGAUAUCCGGCGAAAGCAGAAGGAGAAGGGUCAAGAACCA [AK SSNG3-V2-43] (Eterna round: R96, puzzle: Same State NG 3)",38.9 nM,24.7 nM,43.8 nM,–,–,–
AGUCCAGCCUGAGCUGGACAAAAGCAUGUACAUGAGGAUCACCCAUGUCAUGUACAAGCUUUUUGCUCGUCUAAAAG [Mat - hsa-mir-208a - Mod of JL - D7] (puzzle: Sensor for hsa-mir-208a),–,–,–,272 nM,17.6 nM,406 nM

Sequence,apparent KD of MS2 coat protein (input ligand: FMN 200 uM),apparent KD of MS2 coat protein [1],apparent KD of MS2 coat protein (input ligand: none),apparent KD of MS2 coat protein [2],apparent KD of MS2 coat protein [3],apparent KD of MS2 coat protein [4]
"UUUAGUUGCGGGCAGGAUAUGUAUUAAAAUACAUGAGGAUCACCCAUGUGUGGGUAUAACACCCAACAGAAGGGCCAAUCGCGAC [Laonerce - 12] (Eterna round: R96, puzzle: Same State 2)",–,94.4 nM,–,–,–,–
GAGUGAUGGGUUAGUAACUGCUGGGAAGGACAUGAGGAUCACCCAUGUGAGUAACGAGCUUGUGCUCGUCUUAUAAG [JR_SHM208A_Sub022] (puzzle: Sensor for hsa-mir-208a),–,–,–,388 nM,192 nM,425 nM
"UGGCUCAGACGAGGAUAUAUGCGAUCACAUGAGGAUCACCCAUGUCUCGAGCUUCGGCUCGAGGCAUAGAAGGUGUCUGAGCCU [SSNG2/4-C3] (Eterna round: R96, puzzle: Same State NG 2)",23.9 nM,70.3 nM,94.7 nM,–,–,–
"GGAUGAUAGACAGGAUAUUGAAUGUAAAUAGGACAAGAAGGGUCAAUGAUUUAAACGACCAGUUACAUGAGGAUCACCCAUGUU [JR_SSNG1_Sub024] (Eterna round: R96, puzzle: Same State NG 1)",29.4 nM,36.7 nM,36.6 nM,–,–,–
"ACAUGAGAGAUAGGAUAUUUUGUACCUACAUGUGACAUGAGGAUCACCCAUGUGGUAAGUAUGAGAAAGAAGGAUCAGAUAUGU [Equivalance 52 - Jieux - Same State NG 2] (Eterna round: R96, puzzle: Same State NG 2)",26.3 nM,63.7 nM,79.8 nM,–,–,–
AUUUAAUUUACUCAGGAUAUGCAUAGAUAAACAUGAGGAUCACCCAUGUAAUUAUUUUUUAAUAAGUAGAAGGGAGAUUUUUAUU [splinter_arm[switch]] (puzzle: Same State 2),–,–,–,54.9 nM,65.4 nM,147 nM
"GUGGUUCUCGUAGGAUAUGUAGGAUAUCCCUACAUGAGGAUCACCCAUGUUCGCAUGGGAGAAGGACAGAAGGACGAUCGCUAA [pwkr ssNG2 2FMN + 1F5.16] (Eterna round: R96, puzzle: Same State NG 2)",20.9 nM,11.1 nM,53.5 nM,–,–,–
AAUUAUUAACAUGAGGAUCACCCAUGUGUUUUUGGGCUCGUUUUAUUUAUUAUUAUUAUUAUUAUUAUUAUUAUUAA [SB switch1] (puzzle: Sensor for hsa-mir-208a version 2),–,–,–,85.3 nM,69.1 nM,154 nM
"AGAUGUUAAUCAGGAUAUGGGCACAUGAGGAUCACCCAUGUAAUUUCGAUACUAUGUGGAGACGUCUAGAAGGGAUGGCUAACA [SameState NG2 #85] (Eterna round: R96, puzzle: Same State NG 2)",162 nM,101 nM,134 nM,–,–,–
"GCUCGAUGAGCGUUCUACAUGAGGAUCACCCAUGUUCGUGGGCAGGAUAUUUACGUGCAGAGUGUAGAGAAGGGCCCAUCGAGC [SameState NG3 #67] (Eterna round: R96, puzzle: Same State NG 3)",1260 nM,270 nM,196 nM,–,–,–
"GGUGCCAAAUAAGCCUACAUGAGGAUCACCCAUGUAUGUAGGCAGGAUAUCGUAUGCAAAGCAUACGAGAAGGGCUGAGGCACC [Mat - Same State NG 3 - JL Mod - D54] (Eterna round: R96, puzzle: Same State NG 3)",25.7 nM,51.6 nM,80.5 nM,–,–,–
GGAGCCGGUACUGAGGAUAUUCAUAUUAAAACAUGAGGAUCACCCAUGUGGGCCAGAAGGCCUUGGGAGAAGGCAGAUCGGCUCC [Biseusra - 3] (puzzle: Same State 2),–,–,–,19 nM,93.3 nM,145 nM
"GUUACAUGAGGAUCACCCAUGUAUGUGUGGGAGUAAGUGUCUUAGGAUAUCUGUUAUUUAAUCUAAGAGAAGGAAGAUUGUUGU [JMF's solution 45] (Eterna round: R96, puzzle: Same State NG 3)",113 nM,66.7 nM,94.1 nM,–,–,–
GGAGAACAUGAGGAUCACCCAUGUGAGAGGGAUGUAGGAUAUGUGAGGAGUAGAGGAGGGACAGAAGGACAGAGAU [JR_SS!_Sub069] (puzzle: Same State 1),–,–,–,28 nM,62.9 nM,52.6 nM
"AUGCCAAAUGGAGGAUAUGGAGCCUUAUUGGCUCCAGAAGGUCGGACAUGAGGAUCACCCAUGUGGCAGUGGUCUAAUGACCAC [Eli NG1ss - 42] (Eterna round: R96, puzzle: Same State NG 1)",242 nM,293 nM,463 nM,–,–,–
